# Test results: publication PMC8323339 (Immunity, 2021)
# Where two headings read alike, the source gives them in different places.
# B1: C549 (antibody, V domains shown)
# VH: QVQLVQSGAEVKKPGSSVKVSCKASGGTFSTSAISWVRQAPGQGLEWMGGIIPFFGTPNYAQKFQGRVTIIADESTTTAYMELSGLRFEDSAVYYCARREPYGPRDYYYFFGMDVWGPGTTVTVSS
# VL: QSALTQPPFASASLGASVTLTCTLSSDYSYYKVDWYQQRPGKGPRFVIRVGPGGIVGSKGDGFPDRFSVLGSGLNRSLTINNIQEEDEGDYHCGADEGSGGTFVGVFGGGTKLTV
# B2: C548 IgG (antibody, V domains shown)
# VH: QVQLVQSGAEVKKPGSSVKVSCKASGGTFSSYAISWVRQAPGQGLEWMGGIIPIFGTANYAQKFQGRVTITADESTSTAYMELSSLRSEDTAVYYCARREAYGPRDYYYYYGMDVWGQGTTVTVSS
# VL: QSALTQPPSASASLGASVTLTCTLSSGYSNYKVDWYQQRPGKGPRFVMRVGTGGIVGSKGDGIPDRFSVLGSGLNRYLTIKNIQEEDESDYHCGADQGSGSNFVGVFGGGTKLTV
# B3: C099 IgG (antibody, V domains shown)
# VH: EVQLVESGGGLIQPGGSLRLSCAASGITVSSNYMSWVRQAPGKGLEWVSVMYAGGSTFYADSVKGRFTISRDDSKNTLFLQMNSLRAEDTAIYYCARDLYSSGGTDIWGQGTMVTVSS
# VL: EIVLTQSPGTLSLSPGERATLSCRASQSIGSSYLAWYQQKPGLAPRLLIYGASRRATGIPDKFSGSGSGADFTLTISRLEPEDFAVYYCQQYGSSPGTFGQGTKVEIK
# B4: C080 IgG (antibody, V domains shown)
# VH: EVQLVQSGAEVKKPGESLNISCKASGYSFTIYWIAWVRQLPGKGLEWMGIIYPGDSDTRYSPSFQGQVTISADKSISTAYLQWRSLKASDSAVYYCARGVAVDWYFDLWGRGTLVTVSS
# VL: QSVLTQPPSVSGAPGQRVTISCAGSSSNIGAGFDVYWYQQLPGTAPKLLIYGNNNRPSGVPDRFSGSKSGTSASLAITGLQAEDEADYYCQSSGSVLSDLYVFGTGTKVTVL
# B5: C099 Fab (Fab, V domains shown)
# VH: EVQLVESGGGLIQPGGSLRLSCAASGITVSSNYMSWVRQAPGKGLEWVSVMYAGGSTFYADSVKGRFTISRDDSKNTLFLQMNSLRAEDTAIYYCARDLYSSGGTDIWGQGTMVTVSS
# VL: EIVLTQSPGTLSLSPGERATLSCRASQSIGSSYLAWYQQKPGLAPRLLIYGASRRATGIPDKFSGSGSGADFTLTISRLEPEDFAVYYCQQYGSSPGTFGQGTKVEIK
# How the values were obtained:
# [1] = target: T1, SARS-CoV-2 Spike receptor-binding domain (RBD), wild type, as used for BLI (SARS-CoV-2, wild type, UniProt P0DTC2)
# [2] = target: T1, SARS-CoV-2 Spike receptor-binding …; assay: BLI
# [3] = target: SARS-CoV-2 RBD, as used for crystallization (SARS-CoV-2, wild type, UniProt P0DTC2); assay: crystal structure
Binder,binding result [2],also measured
B1,–,binding result [1]: binds
B2,binds,–
B3,binds,–
B4,binds,–
B5,–,binding result [3]: binds
